B1: Replication restart protein DnaT (Escherichia coli (strain K12)), P0A8J2 (parent)
chain: MSSRVLTPDVVGIDALVHDHQTVLAKAEGGVVAVFANNAPAFYAVTPARLAELLALEEKLARPGSDVALDDQLYQEPQAAPVAVPMGKFAMYPDWQPDADFIRLAALWGVALREPVTTEELASFIAYWQAEGKVFHHVQWQQKLARSLQIGRASNGGLPKRDVNTVSEPDSQIPPGFRG
partner: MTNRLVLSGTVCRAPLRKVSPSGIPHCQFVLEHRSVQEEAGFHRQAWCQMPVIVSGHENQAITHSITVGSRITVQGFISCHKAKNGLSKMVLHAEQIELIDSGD

Variants of: B1
Conditions: with prib_ecoli priB

effect of a mutation on the interaction	Variant
disrupting interaction	D70A
